In the supplement of paper PMC12764529:
± gives the half width of the 95% confidence interval.

Assay: folding stability dG unfold from trypsin proteolysis; higher = more stable
Method in brief: (§1)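 Only designs with AlphaFold2 dimer inter-PAE above 15 were retained; each was a mini-protein under 80 residues with no cysteine, in a PA-tagged cDNA display construct. After digestion with trypsin and chymotrypsin and sequencing, K50 was inferred by Bayesian fitting of counts, and unfolding free energy was derived per protease or combined against a sequence-predicted unfolded-state K50 and a shared folded-state K50.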

Row | Sequence | folding stability dG unfold [kcal/mol]
1 | SAGMKIEEKDGYLVITFKTKEEAEEAAKKLKELFPDAEIVEIKVEKDENGNETVTIVIKLKNLSPEALKSAG [r5_857_TrROS_Hall] | 1.53 ± 0.077
2 | SAGGSAMPKIEVTVYFPENGTETVEIHFPPGKVITGPLSLLEEIIESGIPKENISISYKTLSPSLTSAGGSA [r15_955_JUSTAS] | 1.64 ± 0.03
3 | SAKKLDIKVDGIQRPENNVMILIRIDPGLPPEKDVTITIKGKNGHKQEIPYENDHIYIMVPAQDITIKISAG [r14_350_TrROS] | 1.8 ± 0.077
4 | SAGGMIPPEKLEEIAKKIAEETEPLGKVVKHLFVDPLEDEVVIIELTVYPGPKKIEIKEIKVYPPEELSAGG [r13_37_TrMRF] | 0.0241 ± 0.084
5 | SAGGSAGGSAGYIWIPAKDFAKYIAEEHEEKGYQINIPVEVRPDNWVWIDIEIQPLKPGQSAGGSAGGSAGG [r11_214_TrROS] | 0.644 ± 0.048
6 | SAGGSAGGSAGKPIPYRITLETETTRAVFTIPADVPLEKVVEIAREIRELYPAPFSIEPSSAGGSAGGSAGG [r11_515_TrMRF] | 0.14 ± 0.21
7 | SAGMKEKAIDALKEFFEEEGIKVKKIVIEEKPDGTYKITVYGENGKPIFEIEVPKDVKTSEELKKLIKKSAG [r5_352_TrMRF] | 2.71 ± 0.52
8 | SAGDDWIPIEEIARRIARKHGYPVKSVEVPIYKTPDYYYVTVHIKYENPDDGKKQEFEDQFWIPKDEIKSAG [r5_421_TrROS] | 0.968 ± 0.065
9 | SAGGGRTITVTARFTDPATGTTTTETITIDVPSDTSEEEKKEIAEKTVKEIAEKNGVKSEIESISITSAGGS [r8_312_JUSTAS] | 4.24 ± 0.29
10 | SYDHMRKWIKQAAQERGLKVTNIDIEPTPKTNTFKMSIEIPNGREINFEFQHDKNGGWQFTIQQIKNALKSA [r9_85_TrROS] | 2.07 ± 0.084
11 | SAGGSAGGSAKEILIVMTPEEAEELKKELLEKLKELAKKLKIKEIKIKVYLVKYDKNGKKVSAGGSAGGSAG [r3_89_TrROS_Hall] | 1.9 ± 0.12
12 | SAGGETIPVVMYDPSTGKELTGEIPLKEALDLLAAGKKTAFIPAGGGPVKVHIEPLPDGTVLIVAESGSAGG [r13_171_TrMRF] | 0.576 ± 0.026
13 | SAGGELPLSDITVESESPVTGGSWTVTLEVPSLGLRITVPAAELGAVAASTPGVATSLSPVSPAEPASAGGS [r16_61_JUSTAS] | -0.251 ± 0.11
14 | SAPPIEELSEEEIKKLVEEELKKKGISPENVKIEITIEKPPGPEYRVKVKVTYKKNKNYLEFEFEFELPSAG [r14_703_JUSTAS] | 2.34 ± 0.2
15 | SPIYVFIEKTNNKRTIMIQNPENGWWVEIKFNGGEITFPIDSVEDFLDELKDLGWPIEITKIRPLPPGQLSA [r9_1102_TrROS] | 2.79 ± 0.17
16 | SNPNIKVTTTSETLPDNTLRTTETNPDTGTVTETLVPTDGNGPKTVKTTTTTTDTSTGKKTITTTTTTIPVS [r1_45_JUSTAS] | -1.33 ± 0.26
17 | SAGGSAGGSKKKKKKIKIKIVVNEDELAKKLGLSKEEVRKLAKELADELKKKGYEVEIEIIPPSAGGSAGGS [r12_576_TrROS_Hall] | 1.87 ± 0.049
18 | SAGKNWYIQIQIEHRDPDGKPKREIPIIIEANPGDPEAFERALEFAERIAEKLHPPGHRVEINVTLFPYSAG [r5_793_TrROS] | 2.73 ± 0.23
19 | SAGGSAGGSKPRLVLEIKIKAESEEEAREEVEKALQEKFGLKIKSVEIEREEDYITVRVEIEPSAGGSAGGS [r12_265_TrROS_Hall] | 2.26 ± 0.081
20 | SAGGSAGGSPLAPGQTVTVRVERVDGPVVITVRNEATGETLTLTFDRPAEDLKPGDTVTVTVTSAGGSAGGS [r12_525_TrROS_Hall] | 2.05 ± 0.039
21 | SAKEEEKKKKKEKKKPKPKTVEITVYINGKKIKKIKFNKKTKKITITLENGKKITIPPGMSLEEILKKLSAG [r14_59_TrROS_Hall] | 2.16 ± 0.16

Assay: folding stability dG unfold (combined trypsin and chymotrypsin); higher = more stable
Method in brief: as §1

Row | Sequence | folding stability dG unfold [kcal/mol]
22 | SAGGSAGGSAGKIIFERDEDGYLRAIVYDPKTKEVYVRRFKVKDGKITEVETERINLKDLSAGGSAGGSAGG [r11_167_TrROS_Hall] | 2.21 ± 0.1
23 | SAGGMKVEVVPGGGAVVVEIPFPPTPATARLVISFHPDGTVTADLEPHPELPAELRAKLVELARELLGSAGG [r13_139_TrMRF] | 2.07 ± 0.048
24 | SAGGSMKVYEFKSLEEIKKAIENLPPNEKYIVIKKNKNGKLEIIIVSKEEEEELKKKGVDFIIKVKSAGGSA [r2_351_TrROS_Hall] | 1.95 ± 0.43
25 | SSSMPVTVEIEAKKLSNGKYLAKITVKDANGNELEEYEKEMDESEVEKLKEELKKKYPNMKVTMTYKDELSA [r9_374_JUSTAS] | 4.17 ± 0.45
26 | SAGGSAGGSAGMTAKIVERRVLPGDGYLLLVEHPDGSRSAIVVPPELLENLDISDTVEFDSAGGSAGGSAGG [r11_943_TrMRF] | 0.598 ± 0.064
27 | SAGGSAGGSAGMEVFKSADGKRLLIRAKNGKVAEFDVETGELKFSKENLSPEDIEIVEVPSAGGSAGGSAGG [r17_174_TrROS_Hall] | 0.72 ± 0.22
28 | SAGGDWRTITFNFEVDVPPGQTPEQLIEKAEEIVEELARMFPDVKIEVTDIEVDEDKVYIDVEIRVPDSAGG [r13_805_TrROS] | 3.22 ± 0.16
29 | SAGGSAEVTFTLPDGTPFSGEVTRFPDSIRVTLTVGSTPASFEMDPSTNLITGNIPGRPLTVSLGLSAGGSA [r2_194_JUSTAS] | 1.18 ± 0.053
30 | SAGSAYRIEVYNPETGKKVEIFVFPNGEALVKEEDGFSKIYIDPSKPEQVEAIAKEIEPLGVEVKISPWSAG [r5_791_TrMRF] | 1.35 ± 0.34
31 | SAGGSAGGSAGMVNTTLTTAPDGTRIVTTTFPENPDLVLRTTYAPDGSVLETELVPSSQLSAGGSAGGSAGG [r11_909_JUSTAS] | 1.52 ± 0.026
32 | SAGGSAGGPKIRIEIEHYDNYIVISIRIPPGMPPGQEIKFEIGGYPVKVTYDPEDGWMTISFPASAGGSAGG [r6_267_TrROS] | 3.2 ± 0.14
33 | SAGGSAGGSAKPEKPEKVELKPKVKFVKVKVRLRFSFTLENGEKVEVELEATFLFVDGKLVSAGGSAGGSAG [r3_380_TrROS_Hall] | 5.11 ± 0.2
34 | SAGGSAGGSMEFVEIEIEKELETEVSPDGTTTTRYRVPDGSILVVTTTHPPDGVPTPTVTLVASAGGSAGGS [r20_240_JUSTAS] | 1.08 ± 0.045
35 | SPVPLDVPPGSRAVLVFRFPDGSRAVAVFDPVTGKATVTFYPPDGSKVTRTFDGPDLADLPPGVERIAPLSA [r9_1110_TrMRF] | 2.34 ± 0.14
36 | SATMLDYILDMAREQQEKNGKPVPITITIPVRRDPNGKFRMNEIHEELIKALKEAFPNVPIKIEMVPPPSAG [r14_636_TrROS] | 2.28 ± 0.12
37 | SAGGSAGGPEVTITVEEKDGYLVLTVTVPPGVERLELTIEVNGKLVTLELELKPGQTLTFVLPPSAGGSAGG [r6_971_TrROS_Hall] | 3.97 ± 0.13
38 | SAGGSAGGSAGKPVLTLTLRLEDGTLVRIEFDLETEELTVRVLDLETGEEKEFTFKLPAPSAGGSAGGSAGG [r11_931_TrROS_Hall] | 3.9 ± 0.14
39 | SAGGPPSVWIPIEINFPDSPEQLLEEVENAAQEIADLFGIPVKIEVERNPKKGYATIWIRVDGKTIPISAGG [r13_845_TrROS] | 1.71 ± 0.22
40 | SAGGMIKSEKLIKSPENETIKVETTIILDENGNPKSVKKKITVYKNGKPVKEMEISSIGNEIEIKKPSAGGS [r16_35_JUSTAS] | 1.14 ± 0.21
41 | SAGGKKKKVKKVKVEVKVTVTLTIKLPKEKIKSKEEAEALAKKLLEELGIEGAKVKIEEKDGYLTLTFSAGG [r13_130_TrROS_Hall] | 3.85 ± 0.39
42 | SAGMPIKAKVLIFDPVNPVPKEFEFDVEDLDELVEKIREELGVEVVVDPESGVVVVDTPDGSLIVIEFDSAG [r5_937_TrMRF] | 3.01 ± 0.043

Row | Sequence | folding stability dG unfold [kcal/mol]
43 | SAGMKIEEKDGYLVITFKTKEEAEEAAKKLKELFPDAEIVEIKVEKDENGNETVTIVIKLKNLSPEALKSAG [r5_857_TrROS_Hall] | 1.85 ± 0.23
44 | SAGGSAMPKIEVTVYFPENGTETVEIHFPPGKVITGPLSLLEEIIESGIPKENISISYKTLSPSLTSAGGSA [r15_955_JUSTAS] | 1.37 ± 0.041
45 | SAKKLDIKVDGIQRPENNVMILIRIDPGLPPEKDVTITIKGKNGHKQEIPYENDHIYIMVPAQDITIKISAG [r14_350_TrROS] | 2.25 ± 0.34
46 | SAGGMIPPEKLEEIAKKIAEETEPLGKVVKHLFVDPLEDEVVIIELTVYPGPKKIEIKEIKVYPPEELSAGG [r13_37_TrMRF] | 0.223 ± 0.16
47 | SAGGSAGGSAGYIWIPAKDFAKYIAEEHEEKGYQINIPVEVRPDNWVWIDIEIQPLKPGQSAGGSAGGSAGG [r11_214_TrROS] | 1.04 ± 0.086
48 | SAGGSAGGSAGKPIPYRITLETETTRAVFTIPADVPLEKVVEIAREIRELYPAPFSIEPSSAGGSAGGSAGG [r11_515_TrMRF] | 0.197 ± 0.21
49 | SAGMKEKAIDALKEFFEEEGIKVKKIVIEEKPDGTYKITVYGENGKPIFEIEVPKDVKTSEELKKLIKKSAG [r5_352_TrMRF] | 3.61 ± 0.3
50 | SAGDDWIPIEEIARRIARKHGYPVKSVEVPIYKTPDYYYVTVHIKYENPDDGKKQEFEDQFWIPKDEIKSAG [r5_421_TrROS] | 0.886 ± 0.17
51 | SAGGGRTITVTARFTDPATGTTTTETITIDVPSDTSEEEKKEIAEKTVKEIAEKNGVKSEIESISITSAGGS [r8_312_JUSTAS] | 4.32 ± 0.7
52 | SYDHMRKWIKQAAQERGLKVTNIDIEPTPKTNTFKMSIEIPNGREINFEFQHDKNGGWQFTIQQIKNALKSA [r9_85_TrROS] | 2.69 ± 0.2
53 | SAGGSAGGSAKEILIVMTPEEAEELKKELLEKLKELAKKLKIKEIKIKVYLVKYDKNGKKVSAGGSAGGSAG [r3_89_TrROS_Hall] | 2.26 ± 0.28
54 | SAGGETIPVVMYDPSTGKELTGEIPLKEALDLLAAGKKTAFIPAGGGPVKVHIEPLPDGTVLIVAESGSAGG [r13_171_TrMRF] | 0.636 ± 0.045
55 | SAGGELPLSDITVESESPVTGGSWTVTLEVPSLGLRITVPAAELGAVAASTPGVATSLSPVSPAEPASAGGS [r16_61_JUSTAS] | 0.225 ± 0.091
56 | SAPPIEELSEEEIKKLVEEELKKKGISPENVKIEITIEKPPGPEYRVKVKVTYKKNKNYLEFEFEFELPSAG [r14_703_JUSTAS] | 3.96 ± 0.33
57 | SPIYVFIEKTNNKRTIMIQNPENGWWVEIKFNGGEITFPIDSVEDFLDELKDLGWPIEITKIRPLPPGQLSA [r9_1102_TrROS] | 3.16 ± 0.16
58 | SNPNIKVTTTSETLPDNTLRTTETNPDTGTVTETLVPTDGNGPKTVKTTTTTTDTSTGKKTITTTTTTIPVS [r1_45_JUSTAS] | 0.529 ± 0.085
59 | SAGGSAGGSKKKKKKIKIKIVVNEDELAKKLGLSKEEVRKLAKELADELKKKGYEVEIEIIPPSAGGSAGGS [r12_576_TrROS_Hall] | 2.89 ± 0.054
60 | SAGKNWYIQIQIEHRDPDGKPKREIPIIIEANPGDPEAFERALEFAERIAEKLHPPGHRVEINVTLFPYSAG [r5_793_TrROS] | 2.43 ± 0.17
61 | SAGGSAGGSKPRLVLEIKIKAESEEEAREEVEKALQEKFGLKIKSVEIEREEDYITVRVEIEPSAGGSAGGS [r12_265_TrROS_Hall] | 1.92 ± 0.23
62 | SAGGSAGGSPLAPGQTVTVRVERVDGPVVITVRNEATGETLTLTFDRPAEDLKPGDTVTVTVTSAGGSAGGS [r12_525_TrROS_Hall] | 2.54 ± 0.045
63 | SAKEEEKKKKKEKKKPKPKTVEITVYINGKKIKKIKFNKKTKKITITLENGKKITIPPGMSLEEILKKLSAG [r14_59_TrROS_Hall] | 2.88 ± 0.24
